Measured values: PMC12117103, “Cryo-EM Structure of the relaxosome, a complex essential for bacterial mating and the spread of antibiotic resistance genes” (Nature Communications, 2024)

Molecular target: the molecule itself
Test: SEC; last purification step of TraM on Superdex 200 Increase 10/300 in 20 mM Tris-HCl pH 7.5, 100 mM NaCl

B1: TraM (F plasmid) (natural protein, E. coli F plasmid, UniProt P10026 1-127, looked up)
chain: MAKVNLYISNDAYEKINAIIEKRRQEGAREKDVSFSATASMLLELGLRVHEAQMERKESAFNQTEFNKLLLECVVKTQSSVAKILGIESLSPHVSGNSKFEYANMVEDIREKVSSEMERFFPKNDDE
notes: TraM accessory protein of the F plasmid; synthetic traM gene in the NcoI and HindIII sites of pET28a; In the relaxosome only an AlphaFold model was docked into low-resolution density; also called TraM tetramer; source: E. coli C41 (DE3), purified (ammonium sulphate, HiTrap Heparin, resource Q, HiTrap Blue, Superdex 200 SEC)
- binding result: binds
